The record followed here is publication doi:10.1101/830265.

In experiment [1] the target is total gliadin fraction (Triticum aestivum). Nature of the experiment: turbidimetry.
Experiment [2] has the same target. Nature of the experiment: turbidimetry. The source holds these as a separate data set.
Experiment [3] has the same target. Briefly: turbidimetry. This is another data set of the same source.
Experiment [4] has as its target α-gliadin (Triticum aestivum). Briefly: SPR. (In general: SPR reads the build-up and loss of mass on a sensor chip optically.)
In experiment [5] the target is γ-gliadin (Triticum aestivum) (UniProt P08453). Nature of the experiment: SPR.
Sequence of γ-gliadin (Triticum aestivum) (P08453 20-327): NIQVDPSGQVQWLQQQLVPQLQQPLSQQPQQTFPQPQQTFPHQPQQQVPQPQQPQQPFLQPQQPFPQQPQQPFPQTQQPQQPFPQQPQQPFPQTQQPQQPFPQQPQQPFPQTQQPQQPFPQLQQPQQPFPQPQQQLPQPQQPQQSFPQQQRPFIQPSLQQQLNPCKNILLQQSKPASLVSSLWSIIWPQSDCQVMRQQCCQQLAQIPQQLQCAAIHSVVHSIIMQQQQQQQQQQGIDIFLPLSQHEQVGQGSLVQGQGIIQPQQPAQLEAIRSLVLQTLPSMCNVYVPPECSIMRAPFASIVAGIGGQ

Read-outs that look alike come from different tables or passages of the source.

In general, Kd refers to the free concentration of one partner at which half of the binding sites on the other are occupied at equilibrium, for simple one-to-one binding. Read a low Kd as a tighter complex.

B1: puroindoline A (natural protein)
chain: DVAGGGGAQQCPVETKLNSCRNYLLDRCSTMKDFPVTWRWWKWWKGGCQELLGECCSRLGQMPPQCRCNIIQGSIQGDLGGIFGFQRDRASKVIQEAKNLPPRCNQGPPCNIPGTIGYYW
In the case of B1, the Kd stood at 600 nM in experiment [1]; 1000 nM in experiment [2]; 400 nM in experiment [3]; 4450 nM in experiment [4]; 630 nM in experiment [5]. Also, the response at equilibrium at 2.5 µM PINA stood at 160 RU in experiment [4] and 34 RU in experiment [5].
